# Experimental data from the nanobody polyreactivity screen of Harvey et al. (2022).
# Experiment: yeast display, Sf9 membrane polyspecificity reagent, FACS + sequencing; frameworks hold sequencing errors
# Procedure, shortened: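 In a synthetic yeast display library (Saccharomyces cerevisiae BJ5465), nanobody expression was induced with galactose for 36–48 hours. FACS gates were set low and high (top ~1%) using anti-HA fluorescence for expression and streptavidin fluorescence for binding of the Sf9 membrane reagent. Each polyreactivity label is drawn from the gate of origin.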
row,Sequence,polyreactivity (PSR sort gate)
1,QVQLVESGGGLVQAGGSLRLSCAASGLIFYKNAMGWYRQAPGKEREFVAAISRSGASTYYADSVKARFTISRDNAKNTVYLQMNSLKPEDTAVYYCAARAGANYRMDYWGQGTQVTVSS,high polyreactivity
2,QVQLVESGGGLVQAGGSLGLSCAASGRIFARYAMGWYRQAPGKERELVAAITKSVGSTYYADSVKGRFTISRDNAKNTVYLQMNIMKPEDTAVYYCAARYRGGYYFGYETYYYWGQGTQVTVSS,high polyreactivity
3,QVQLVESGGGLVQAGGSLRLSCAASGRTFRGYAMGWYRQAPGKERELVATISSRGGSTYYADSVKGRFTISRDNAKNTVYLQMNSLKPEDTAVYYCAARYIGYSSYKYDYWGQGTQVTVSS,high polyreactivity
4,QVQRVESGGGLVQAGGSLRLSCAASGSTFTWNVMGWYRQAPGKERELVASITSGDSTYADSVKGRFTISRDNAKNTVYLQMNSLKPEDTAVYYCNVGYDQEKYGYWGQGTQVTVSS,low polyreactivity
5,QVQLVESGGGLVQAGGSLRLSCAASGSTILYYGMGWYRQAPGKERELVATITWRGGRTYYADSVKGRFTISRDNAKNTVYLQMNSLKTEDTAVYYCARVRLTTYGYYSWGQGTQVTVSS,high polyreactivity
6,QVQLVESGGGLVQAGGSLRLSCAASGRIFYYNAMGWYRQAPRKERELVASITGSGGSTYYADSVKGRFTISRDNAKNTVYLQMNSLKPEDSAVYYCAKREYLYRYYYVAKYDYWGQGTQVSVSS,low polyreactivity
7,QVQLVESGGGLVQAGGSLRLSCAASGRIFGYYTMGWYRQAPGKERELVAAITRDGGSTYYADSVKGRFTISRDNAKNTVYLQMNSLKPEDTAVDYCTAASQSRYYYWGQGTQVTVSS,high polyreactivity
8,QVQLVESGGGLVQAGGSLRLSCAASGITFKYYAMGWYRQAPGKEREFVASISARGGGTYYADSVKGRFTISRDNAKNTVYLQMNSLKPEDTAVYYCAVDYRYGYFVYVHYEYWGQGTQVTVSS,high polyreactivity
9,QVQLVESGGGLFQAGGSLRLSCAASGSIYRKYAMGWYRQAPGKERELVATISWNGGRTHYADSVKGRFTISRDNAKNTVYLQMKSLKPEDTAVYYCAAHTRTSGHNYWGQGTQVTVSS,low polyreactivity
10,QVQLVESGGGLVQAGGRLRLSCAASGGIFVSYAMGWYRQSPGKEREMVAAITSGGGTSYADSVKGRFTISRDNAKNTVYLQMNSLKPEDTEVYYCAARFMWSVFGRKGGYWGQGTQVTVSS,low polyreactivity
11,QVQLVDSGGGLVQAGGSLRLSCAASGRTIYLYAMACYRQAPGKERELVAAISERGGRTYYADSVKGRFTISRDNAKNTVYLQMNSLKPEDTAVYYCAAVKGYNYGYWGQGTQVTVSS,high polyreactivity
12,QVQLVESGGGLVQAGGSLRLSCAASGRTFGTYAMGWYRQAPGKERELVAAINFSGGNTYYADSVKGLFTITRDNAKNTVYLQMNSLKPEDTAVYYCAKRGHSYSLDLYYIVTYDYWGQGTQVTVSS,low polyreactivity
13,QVQLVESGGGLVQAGGSLRLSSADSGRTFRYYSMGWYRQAPGKERELVAAISSSGASTYYADSVKGRFTISRDYAKNTVYLQMNSLKPEDTAVYYCRSGILFYSRYDYWGQGTQVTVSS,low polyreactivity
14,QVQLVESGGGLVQAGGSLPLICADSGFISAYYAMGWYRQAPGKEREFVAGISKSGSSTSYADSVKGRFTISRDNAKKTVYLQMNSLKPEDTAVYYCAKYTPYYSELGYWGQGTQVTVSS,high polyreactivity
15,QVQLVESGGGLVQAGGSLRLSCAASGRIVSGYAMVWYRQAPGKERELVAAITSGGSTNYADSVKGRFTLSRDNAKNTVYLQMNSLKPEDTAVYYCAADSREVSTTAYYYWGQGTQVTVSS,low polyreactivity
16,QVQLVESGGGLVQAGGSLRLSCAASGSIFVGNAMGWYRQAPGKERELVATITSGCSTYYADSVKGRFTISRDNAMNTVYLQMNSLKPEVTAVYYCAADYDFSKFDYDYWGQGTQVTVSS,low polyreactivity
17,QVQLVESGGGLVQAGGSLRLSCAASGSIFSPYTMGWYRQAPGKERELVAAMSASGGSTYYADSVKGRFTISRDNAKNTVYLQMNSLKPEDTAVYYCNVYRITRHSYNCGFDYWGQGTQVTVSS,low polyreactivity
18,QVQLVESGGGIVQAGGSLRLSCAASGRIFVPNAMGWYRQAPGKERELVAAITSDGRTNYADSVKGRFTISRDNAKHTVYLQMNSLKPEDTAVYYCNAPVVTFGGYQDDVEYGYWGQGTQVTVSS,low polyreactivity
19,QDQLVESGGGLVQAGGSLRLSCAASGLIFARYAMGWYIQAPGKERELVAVISGRGGGTYYADSVKGRFTISRDNAKNTVYLQMNSLKPEDTAVYYCNKYGYKGGVGYDYWGQGTQVTVSS,high polyreactivity
20,QVQLVESGGGLVQAGGSLRLSCAASGSIFRFYAMGWYRQAPGKEGELVAAITSGGSTNYADSVKGRFTISRDNAKNTVYLQMNSLKPEDTAVSYCAAVVVYFFIYDYWGQGTQVTVSS,low polyreactivity
21,QVQLVESGGGLVQAGGSLRLSCAASGIIFEYYAMGWYRQAPGKERELVAAISKRGGSTYYADSVKGRFTISRDNAKNTVYLQMNSLKPEDTAVYYCNARRRYYSGPVYLHYRVNYWGQGTQVTVSS,high polyreactivity
22,QVQLVESGGGLVQAGGSLRLSFAASGINFEHNSMGWYRQAPGKERELVAVISKYGGRTYYADSVKGRFTISRDNAKNTVYLQMNSLKPEDTAVYYCAKRSPFITWNGISYEEYDYWGQGTQVTVSS,low polyreactivity

row,Sequence,polyreactivity (PSR sort gate)
1,QVQLVESGGGLDQAGGSLRLSCAASGSTFSQYVMGWYRQAPGKERELVAANSSGGSTYYADSVKGRFTISRDNAKNTVYLQMNSLKPEDTAVYYCAAKYDGSYVGLYWYSMNYWGQGTQVTVSS,low polyreactivity
2,QVKLVESGGALVQAGCSLRLSCAASARTFPVYAMGWYRQAPGKERELVAAIRYSAGSTYYADSVKGRFTISRDNAKITVYLQMNSLKPEDSSVSYCARTTPTGRQYRRYDYWGQGTQLTVSS,low polyreactivity
3,QVQLVESGGGLVQAGGSLRLSCAASGSTFYTNAMGWYTQAPGKERELVAAISGSGGSTYYADSVKGRFTISRDNAKNTVYLQMNSLKPEDTAVYYCAARSRYYDTRFDYWGQGTQVTVSS,low polyreactivity
4,QVQLVESGGGLVQAGGSLRLSCAASGSTFLYNTMGWYRQAPGKERELVATITSRGDRTYYADSVKGRFTISRDNAKNTVYLQMNSLNPEDTGVYYCARDYGPYLSPENPAPMDYWGQGTQVTVSS,low polyreactivity
5,QVQLVESGGGLVQAGGSLRLSCDASGSIFSHYAMGWYRQAPGKERELVATITWRGGSNTNYADSVKGRFTISRDNAKNTVYLQMNSLKPEDTAVYYCAADGDGYYYWGQGTQVTVSS,low polyreactivity
6,QVQLVESGGGLLKAGGSLRLSCAASGIIFDSYAMGWYIQAPGKERELVAAITSDSGRTYYADSVKGRFTISRDYAKNTFYLQMNSLKPEDTAVYYCAKRWEGPYDYWGQGSQVTVSS,low polyreactivity
7,QVQLVESGGGLVQAGGSLRLSCAASGFIFALYAMGWYRQAPGKERELVASISKSGARTYYADSVKGRFTISRDNAKNTVDLQMNSLKPEDPAVYYCAALYRTGGIQYAGYGYWGQGTQVTVSS,high polyreactivity
8,QVQLVESGGGLVQAGGSLRLICAASGRIFPFYAMGWYRPEPGKERELVASISWSGGSTYYADSVKGRFTISRDNAKNPVYLQMNSLKPEDTAVFFCAARRWIADPGRIMDYWGQGTQVTVSS,high polyreactivity
9,QVQLEESVGGLVQAGGSLRLSCAASGSIFSPNAMGSYRQAPGKERELVAAISSNGDSTYYADSVKGRFTISRDNAMNTVYLQMNSLKPEDTAVYYCAAVSIGPGEYDYWGQGTQVTVSS,low polyreactivity
10,QVQLVESGGGLVQAGGSLRLSCAASGRIFRINAMGWYRQAPGKERELVASITSRAGSTYYADSVKGRFTISRDNAKNTVYLQMTSLKPEDTAVYDCAARSVYTYYRLDYWGQGSQVTVSS,high polyreactivity
11,QVQLVVSGGGLVQAGGSLRLSCAASGSIFVSNAMGWYRQAPGKEREFVAAITGSGGSTYYADSVKGRFPISRDNAKNTVYLQMNSLKPEDTAVYYCNAGLIHFYAGNYDLYDYWGQGTQVTVSS,low polyreactivity
12,QVQLVESGGGLVQAGGSLRLSCAASGRIFGRNAMGWYRQAPGNERELVAAINFGGTSTYYADSVKGRFTISRDNAKNTVYLQMNSLKPEDTAVYYCAARSRQDNFYRSYNSWGQGTQVTVSS,high polyreactivity
13,QVQLVESGGGLVQAGGSLRLSCAASGSTFLYYAMGWYTQAPGKERELVAAITVRGGNTYYADSVKGRFTISRDNAKNTVYLQMNSLKPEDTAVYYCAARAYYSFRYDYWGQGTQVTVSS,high polyreactivity
14,QLQLEESGGGFVQAGGSLRISCAASGAIFLSYAMGWYRQAAAKEMEFVAGISYSGGTTYYADSVKGRFTISRDNAKNTVYLQMNSLKQEVTAVYYCAKRTAVWTSGGYRKRDYWGQATQVTVSS,high polyreactivity
15,QVQLVESGGGLVQAGGSLRLSCAASGSIFGFNAMGWYRQAPGKERELVASISSSGDSTYYADSVKGRFTISRDNAKNTVYLLMNSLKPEDTAVYYCATEGRTDYNREMEYWGQGTQVTVSS,low polyreactivity
16,QVQLVESGGGLVQAGGSLRLSCAASGSIFWWYAMGWYRQAPGKERELVAAIRWSGTTTFYADSLKGRFTISRDNAKNNVFLQMKSLKPEDTAVYYCNAEGGIWGVTSGYDYWGQGTQVTVSS,low polyreactivity
17,QVQLVESGGGLVQAGGSLRLSCAASGSIFDLNAMGWYRQAPGKERELVAAISKSGGSTYYADSVKGRFTISRDNAKNTVYLQMISLKPEDSAVYYCAARYHYPGNWYNYWGQGTQVTVSS,low polyreactivity
18,QVQLVESGGGLVQAGGSLRLICAASAFTIRRYAMGWYRQARGKERELVAAINWNGDTTYYADSVKGRFTISSDNAKNTVYLQMNSLKPEDTAVYYCATSDYYYDYWGQGTQVTVSS,high polyreactivity
19,QVQLVESGGGLVQAGGSLRLSCAASGSTFYGKAMGWYRQAPGKRELLAAITWSGGSTYYADSVKGRFTISRDNAKNTVYLQMNSLKPEDTAVYYCAARNPKSGYNYWGQGTQVTVSS,low polyreactivity
20,QVQLVESGGGLVQAGGSLRLSCAASGIIFDSYAMGWYRQAPGKERELVAAITSDSGRTYYADSVKGRFTISRDNAKNTVYLHMNSLKPEDTAVYYCNADAYTYPTARYYWGQGTQVTVSS,low polyreactivity
21,QVQLVESGGGLVQAVGSLRLSCADSGLPFYRNAMGWYRQARGKVRELVAAISLRGGSTYYADSVKGRFTISRDHAKNPVYLQMNSLKPEDTAVYYCAARRWWLNLDYWGQGTQVTVSS,high polyreactivity
